This note sets out measurements from PMC6667456.

This series concerns the target T1, TofR-His (also written His-TofR) (Burkholderia glumae BGR1?) (UniProt A1KWS3).
T1 sequence: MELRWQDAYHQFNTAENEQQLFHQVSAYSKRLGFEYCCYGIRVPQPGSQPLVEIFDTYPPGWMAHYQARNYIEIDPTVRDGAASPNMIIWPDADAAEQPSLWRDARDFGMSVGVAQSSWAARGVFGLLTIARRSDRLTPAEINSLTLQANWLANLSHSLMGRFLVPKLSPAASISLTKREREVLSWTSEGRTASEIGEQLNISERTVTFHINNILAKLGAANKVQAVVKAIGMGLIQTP
As to the kind of experiment: EMSA. Conditions: EMSA: 0.4 nM biotin-DNA, 10 mM Tris-HCl pH 7.5, 10 mM NaCl, 100 mM NaCl (both sic), 0.5 mM EDTA, 1 mM DTT, 5% glycerol, 50 ng/uL poly(dI-dC), 15 min …. (In general: In EMSA bound probe runs differently from free probe, usually more slowly.)

For the sequence “TGGTGTCCTCCAGATATGGGCTGCAGTCGATATGGGCTGCAGTATCGGATCTCGCTTATCATTACTCAAACGAAATTTTCTTGAGTTGAACATGAAAAATATTCAGGTTCACGCTGCTACTGAACGCCGCCATGAATCGCTCGCCGCTTGAGCTGCGCCATCTGCAGACCCTCACGGCGCT (double strand) [metE1 putative promoter region, 181 bp]”, the binding entry was “binds”.
